Reference: US20150079071A1, “NON-CATALYTIC DOMAIN TARGETS IN MATRIX METALLOPROTEASE PROTEINS FOR CANCER THERAPIES” (THE REGENTS OF THE UNIVERSITY OF CALIFORNIA, priority 2012, published 2015)

Legend:
[1] = molecular target: myristoylated alanine-rich C-kinase substrate (MARCKS), endogenous, in conditioned medium of SCp2 cells (mouse) (UniProt P26645); assay: anti-Flag IP from conditioned medium, LC-MS/MS spectra counts; selection criterion that MARCKS passed
[2] = molecular target: annexin A2 (ANXA2), endogenous, in conditioned medium of SCp2 cells (mouse) (UniProt P07356); assay: anti-Flag IP from conditioned medium, LC-MS/MS spectra counts; selection criterion that ANXA2 passed
Sequence of annexin A2 (ANXA2), endogenous, in conditioned medium of SCp2 cells (mouse) (P07356 2-339 limits assumed): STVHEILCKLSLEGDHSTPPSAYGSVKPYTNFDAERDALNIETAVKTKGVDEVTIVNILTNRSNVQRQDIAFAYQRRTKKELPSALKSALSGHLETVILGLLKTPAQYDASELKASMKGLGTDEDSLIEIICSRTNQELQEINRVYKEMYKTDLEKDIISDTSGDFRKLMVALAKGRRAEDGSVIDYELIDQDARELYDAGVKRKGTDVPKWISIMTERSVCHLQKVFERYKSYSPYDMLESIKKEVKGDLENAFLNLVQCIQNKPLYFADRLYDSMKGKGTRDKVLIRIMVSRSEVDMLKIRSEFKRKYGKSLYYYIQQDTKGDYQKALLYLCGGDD

Sequence of myristoylated alanine-rich C-kinase substrate (MARCKS), endogenous, in conditioned medium of SCp2 cells (mouse) (P26645 2-309 limits assumed): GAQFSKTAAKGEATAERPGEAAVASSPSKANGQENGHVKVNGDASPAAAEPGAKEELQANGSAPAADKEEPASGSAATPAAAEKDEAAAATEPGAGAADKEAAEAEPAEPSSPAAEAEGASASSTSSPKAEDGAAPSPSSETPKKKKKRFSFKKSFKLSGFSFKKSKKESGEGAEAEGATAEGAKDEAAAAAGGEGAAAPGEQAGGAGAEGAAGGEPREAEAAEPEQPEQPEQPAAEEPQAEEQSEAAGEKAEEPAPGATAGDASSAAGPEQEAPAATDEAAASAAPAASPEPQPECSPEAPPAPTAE

Substance: Flag-tagged full-length human MMP3 (FL) (from UniProt P08254 18-477) (enzyme)
- fold change of abundance (spectra counts) in FL compared with dPEX [1]: > 1.5 fold
- fold change of abundance (spectra counts) in FL compared with dPEX [2]: > 1.5 fold
